Data: patent US20210059142

Experiments:
Test in all cases: cell_activity
[1] = test system: FucT1_T01 TAL effector endonuclease, right monomer (engineered); details: yeast beta-gal assay of the pair 37 C; 0.6 at 30 C
[2] = test system: XylT_T03 TAL effector endonuclease, right monomer (engineered); details: yeast beta-gal assay of the pair 37 C; 0.7 at 30 C; protoplast NHEJ 34.4% XylT1, 28.2% XylT2 (Table 3)
[3] = test system: XylT_T04 TAL effector endonuclease, right monomer (engineered); details: yeast beta-gal assay of the pair 37 C; 0.9 at 30 C; protoplast NHEJ 73.8% XylT1, 63.9% XylT2 (Table 3)
[4] = test system: FucT1_T02 TAL effector endonuclease, right monomer (engineered); details: yeast beta-gal assay of the pair 37 C; 0.7 at 30 C; protoplast NHEJ 39.2% FucT1, 24.7% FucT2 (Table 3)
[5] = test system: FucT2_T02 TAL effector endonuclease, right monomer (engineered); details: yeast beta-gal assay of the pair 37 C; 0.7 at 30 C; protoplast NHEJ 46.5% FucT1, 45.0% FucT2 (Table 3)
[6] = test system: FucT2_T01 TAL effector endonuclease, right monomer (engineered); details: yeast beta-gal assay of the pair 37 C; 0.8 at 30 C
[7] = test system: XylT_T04 TAL effector endonuclease, left monomer (engineered); details: yeast beta-gal assay of the pair 37 C; 0.9 at 30 C; protoplast NHEJ 73.8% XylT1, 63.9% XylT2 (Table 3)
[8] = test system: FucT1_T01 TAL effector endonuclease, left monomer (engineered); details: yeast beta-gal assay of the pair 37 C; 0.6 at 30 C
[9] = test system: FucT2_T01 TAL effector endonuclease, left monomer (engineered); details: yeast beta-gal assay of the pair 37 C; 0.8 at 30 C
[10] = test system: FucT2_T02 TAL effector endonuclease, left monomer (engineered)
[11] = test system: FucT1_T02 TAL effector endonuclease, left monomer (engineered)
[12] = test system: XylT_T03 TAL effector endonuclease, left monomer (engineered); details: yeast beta-gal assay of the pair 37 C; 0.7 at 30 C; protoplast NHEJ 34.4% XylT1, 28.2% XylT2 (Table 3)
[13] = test system: FucT_T04 TAL effector endonuclease, left monomer (engineered); details: yeast beta-gal assay of the pair 37 C; 0.5 at 30 C; same with FucT1 and FucT2 spacers
[14] = test system: FucT_T04 TAL effector endonuclease, right monomer (engineered); details: yeast beta-gal assay of the pair 37 C; 0.5 at 30 C; same with FucT1 and FucT2 spacers

AATAAGCAATGGCGCAA (double strand) [FucT1_T01 target sequence 2]
activity (relative to I-SceI) [1]: 0.8

ATCACTCTCTATCTCTA (double strand) [XylT_T03 target sequence 2]
activity (relative to I-SceI) [2]: 0.9

CTCTACTTCTCTTCCCA (double strand) [XylT_T04 target sequence 2]
activity (relative to I-SceI) [3]: 0.9

CTCTGTTCGTTGCCCTA (double strand) [FucT_T02 target sequence 2]
activity (relative to I-SceI) [4]: 0.9
activity (relative to I-SceI) [5]: 0.9

GATAAACAATGGCGCAA (double strand) [FucT2_T01 target sequence 2]
activity (relative to I-SceI) [6]: 0.9

TCTCTTCGCTCTCAACT (double strand) [XylT_T04 target sequence 1]
activity (relative to I-SceI) [7]: 0.9

TGAGATCGGCGTCAAAT (double strand) [FucT1_T01 target sequence 1]
activity (relative to I-SceI) [8]: 0.8

TGAGATCGTCGTCAAAT (double strand) [FucT2_T01 target sequence 1]
activity (relative to I-SceI) [9]: 0.9

TTCAAACGCACCCAATA (double strand) [FucT1_T02 target sequence 1]
activity ([10]; pair at endogenous FucT1, 1-bp polymorphism in half-site, N. benthamiana protoplasts, control 0.79%): 46.5 % NHEJ
activity (relative to I-SceI) ([11]; yeast beta-gal assay of the pair 37 C, 0.7 at 30 C, protoplast NHEJ 39.2% at FucT1 (Table 3)): 0.9

TTCAAACGCACCCGATA (double strand) [FucT2_T02 target sequence 1]
activity (relative to I-SceI) ([10]; yeast beta-gal assay of the pair 37 C, 0.7 at 30 C, protoplast NHEJ 45.0% at FucT2 (Table 3)): 0.9
activity ([11]; pair at endogenous FucT2, 1-bp polymorphism in half-site, N. benthamiana protoplasts, control 0.14%): 24.7 % NHEJ

TTCTTGTTTCTCTCTTC (double strand) [XylT_T03 target sequence 1]
activity (relative to I-SceI) [12]: 0.9

TTGCCTCTGTTCGTTGC (double strand) [FucT_T04 target sequence 1]
activity (relative to I-SceI) [13]: 0.6

TTTCTGGTTCGACTCGA (double strand) [FucT_T04 target sequence 2]
activity (relative to I-SceI) [14]: 0.6
